The text below walks through data of patent US7125658B2, “Small protein that interacts with a ribonucleotide reductase subunit and uses thereof” (The Trustees of Columbia University in the City of New York, priority 1998, dated 2006).

The target of assay [1] is T1, GAD-RNR2 (Saccharomyces cerevisiae, UniProt P09938).
T1 construct: expressed in transfected cells; host or cells: S. cerevisiae two-hybrid strain PJ69-4A
T1 sequence (P09938 1-399): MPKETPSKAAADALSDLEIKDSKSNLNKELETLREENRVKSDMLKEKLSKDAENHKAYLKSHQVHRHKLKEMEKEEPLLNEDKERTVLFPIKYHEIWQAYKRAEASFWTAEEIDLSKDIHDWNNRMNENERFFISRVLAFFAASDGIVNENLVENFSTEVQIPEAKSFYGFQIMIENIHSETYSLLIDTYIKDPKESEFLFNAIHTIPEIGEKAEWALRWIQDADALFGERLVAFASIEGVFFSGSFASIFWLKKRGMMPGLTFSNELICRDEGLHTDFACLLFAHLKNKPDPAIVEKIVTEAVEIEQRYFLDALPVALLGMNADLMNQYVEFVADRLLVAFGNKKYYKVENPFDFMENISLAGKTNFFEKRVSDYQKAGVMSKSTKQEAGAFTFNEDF
The experiment in a line: yeast two-hybrid assay against GAD-RNR2. Details: key to HIS3 reporter / ADE2 reporter: + signifies growth on histidine-less and adenine-less media; +/− signifies constructs unable to grow on adenine-less medium but able to give rise to white colonies on YPD medium. The class given is cell-based. From the text:
(§1) The strains and plasmids for two-hybrid analysis were PJ69-4A, pGBD-C2, pGAD-C2 (James et al., 1996) and pACTII (CLONTECH® Inc.). The primer pair pB-SML1 5′ (SEQ ID NO: 11) and pGBD-SML1 3′ (SEQ ID NO: 13) (Table 4) was used to amplify the SML1 ORF. After digestion with BamHI and PstI, this PCR product was cloned into the BamHI-PstI sites of pGBD-C2 to construct plasmid pWJ728. Similarly, plasmid pWJ684 contains a BamHI fragment from the PCR product of the SML1 ORF generated using the primer pair pB-SML1 5′ and pB-SML1 3′ (SEQ ID NO: 12) (Table 4) and inserted at the BamHI site of pACTII. PCR fragments containing the RNR1 or the RNR2 ORF were generated by primer pairs RNR1-ORF 5′ (SEQ ID NO: 14) and RNR1 3′ (SEQ ID NO: 15) or RNR2-ORF 5′ (SEQ ID NO: 17) and RNR2 3′ (SEQ ID NO: 16) (Table 4). These fragments were cloned into the BamHI-PstI site of pGBD-C2 and pGAD-C2 to construct pWJ731 and pWJ745 or pWJ729 and pWJ746 respectively.
(§2) The GAL1-HIS3 reporter was assayed on SC-HIS-LEU-TRP medium plus 1-2 mM 3-aminotriazole. The GAL2-ADE2 reporter was assayed on SC-ADE-LEU-TRP medium.

For assay [2], the target named is T2, GAD-SML1 (Saccharomyces cerevisiae, UniProt Q04964).
T2 construct: expressed in transfected cells; host or cells: S. cerevisiae two-hybrid strain PJ69-4A
T2 sequence (Q04964 1-104): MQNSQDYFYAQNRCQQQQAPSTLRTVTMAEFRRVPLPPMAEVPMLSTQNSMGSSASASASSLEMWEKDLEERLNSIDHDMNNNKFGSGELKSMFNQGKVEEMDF
The experiment in a line: yeast two-hybrid assay against GAD-SML1. Type of assay: cell-based. On the set-up: key to HIS3 reporter / ADE2 reporter: + signifies growth on histidine-less and adenine-less media; +/− signifies constructs unable to grow on adenine-less medium but able to give rise to white colonies on YPD medium.
Excerpt: as §1, §2

In assay [3] the target is T3, GAD (Saccharomyces cerevisiae, UniProt P04386).
T3 construct: expressed in transfected cells; host or cells: S. cerevisiae two-hybrid strain PJ69-4A
T3 sequence (P04386 768-881 limits assumed): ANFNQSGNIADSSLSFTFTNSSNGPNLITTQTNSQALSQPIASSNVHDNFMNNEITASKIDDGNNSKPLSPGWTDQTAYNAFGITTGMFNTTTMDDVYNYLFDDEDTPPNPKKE
As to the kind of experiment: yeast two-hybrid assay against GAD alone. The class given is cell-based.
Excerpt: as §1, §2

The target of assay [4] is GAD-Sml1 two-hybrid fusion (plasmid pWJ684, pACTII) (Saccharomyces cerevisiae (yeast)) (UniProt Q04964). The experiment in a line: cell-based or functional assay.
In assay [5] the target is T4, GAD-Rnr2 two-hybrid fusion (plasmid pWJ746) (yeast (Saccharomyces cerevisiae), UniProt P09938 1-399).
T4 sequence (looked up): T1 sequence (P09938 1-399)
As to the kind of experiment: cell-based or functional assay.

Assay [6] has as its target T5, GAD-Sml1 two-hybrid fusion (plasmid pWJ684, pACTII) (Saccharomyces cerevisiae (yeast), UniProt Q04964 1-104).
T5 sequence: T2 sequence (Q04964 1-104)
The experiment in a line: cell-based or functional assay.

Assay [7] deals with T6, GAD (Gal4 activation domain alone, empty vector control) (UniProt P04386 768-881).
T6 sequence (looked up): T3 sequence (P04386 768-881 limits assumed)
The experiment in a line: cell-based or functional assay.

Assay [8] has as its target T4, GAD-Rnr2 two-hybrid fusion (plasmid …). As to the kind of experiment: yeast two-hybrid, GBD-Sml1 with GAD-Rnr2.
Excerpt: We next tested the possibility that Sml1 interacts with the subunit(s) of RNR since such interactions may provide a regulatory mechanism to inhibit RNR activity. […] In addition, Rnr1 and Rnr2 each interacts with itself, however these interactions are much weaker than the interaction between Sml1 and Rnr1 (Table 2).
as §1, with “5'” for “5′”, “3'” for “3′”
The GAL1-HIS3 reporter was assayed on SC-HIS-LEU-TRP medium plus 1-2 mM 3-aminotriazole. […]

In assay [9] the target is T7, GAD-Rnr1 two-hybrid fusion (plasmid pWJ745) (yeast (Saccharomyces cerevisiae), UniProt P21524 1-888).
T7 sequence (looked up): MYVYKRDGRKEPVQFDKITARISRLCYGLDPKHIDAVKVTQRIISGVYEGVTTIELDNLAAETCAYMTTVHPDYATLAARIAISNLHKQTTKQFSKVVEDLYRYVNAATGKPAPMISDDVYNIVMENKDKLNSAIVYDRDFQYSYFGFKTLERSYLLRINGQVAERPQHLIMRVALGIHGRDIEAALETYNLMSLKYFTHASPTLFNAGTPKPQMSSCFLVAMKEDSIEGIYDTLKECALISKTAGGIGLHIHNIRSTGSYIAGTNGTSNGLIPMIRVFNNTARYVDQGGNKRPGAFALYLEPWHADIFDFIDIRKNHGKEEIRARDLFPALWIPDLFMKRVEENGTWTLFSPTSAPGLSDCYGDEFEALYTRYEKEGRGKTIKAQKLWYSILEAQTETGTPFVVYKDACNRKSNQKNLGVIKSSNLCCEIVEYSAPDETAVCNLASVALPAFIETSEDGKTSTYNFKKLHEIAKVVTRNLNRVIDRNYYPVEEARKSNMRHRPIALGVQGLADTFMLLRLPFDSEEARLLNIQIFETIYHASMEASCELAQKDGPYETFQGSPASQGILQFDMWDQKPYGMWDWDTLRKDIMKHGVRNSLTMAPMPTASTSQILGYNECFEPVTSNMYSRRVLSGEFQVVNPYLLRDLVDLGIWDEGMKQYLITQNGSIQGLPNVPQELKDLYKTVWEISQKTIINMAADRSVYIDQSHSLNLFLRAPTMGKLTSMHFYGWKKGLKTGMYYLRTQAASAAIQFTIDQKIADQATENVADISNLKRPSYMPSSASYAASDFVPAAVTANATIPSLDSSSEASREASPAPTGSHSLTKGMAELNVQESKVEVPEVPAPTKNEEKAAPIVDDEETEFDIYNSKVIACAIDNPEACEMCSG
As to the kind of experiment: cell-based or functional assay.

In assay [10] the target is T8, GAD-RNR1 (Saccharomyces cerevisiae, UniProt P21524).
T8 construct: expressed in transfected cells; host or cells: S. cerevisiae two-hybrid strain PJ69-4A
T8 sequence (P21524 1-888): T7 sequence (looked up)
The experiment in a line: yeast two-hybrid assay against GAD-RNR1. Details: key to HIS3 reporter / ADE2 reporter: + signifies growth on histidine-less and adenine-less media; +/− signifies constructs unable to grow on adenine-less medium but able to give rise to white colonies on YPD medium. Type of assay: cell-based.
Excerpt: as §1, §2

The mark [11] stands for this setting: SC-HIS-LEU-TRP plus 3-aminotriazole.

Regarding “RNR2: GBD (Gal4 DNA binding domain) fusion of the RNR2 ORF in pGBD-C2, two-hybrid construct (GAFTFNEDF)”, the LacZ activity in assay [1] was 2.3 ± 0.4 Miller Units; in [2], 0.9 ± 0.4 Miller Units; in assay [3] it was 1.4 ± 0.1 Miller Units. For the same molecule, in [1] (SC-ADE-LEU-TRP), the ADE2 reporter entry is reported as “+/−”. Further, the HIS3 reporter result in assay [1] (setting [11]) is on record as “+”.

As to “GBD vector (Gal4 DNA binding domain alone, empty vector control) (from UniProt P04386 1-147)”, the two-hybrid LacZ activity in assay [4] came out at 0.4 Miller Units.

B1: GBD-Rnr2 two-hybrid fusion (plasmid pWJ729) (other, UniProt P04386 1-147, looked up)
chain: MKLLSSIEQACDICRLKKLKCSKEKPKCAKCLKNNWECRYSPKTKRSPLTRAHLTEVESRLERLEQLFLLIFPREDLDMILKMDSLQDIKALLTGLFVQDNVNKDAVTDRLASVETDMPLTLRQHRISATSSSEESSNKGQRQLTVSMPKETPSKAAADALSDLEIKDSKSNLNKELETLREENRVKSDMLKEKLSKDAENHKAYLKSHQVHRHKLKEMEKEEPLLNEDKERTVLFPIKYHEIWQAYKRAEASFWTAEEIDLSKDIHDWNNRMNENERFFISRVLAFFAASDGIVNENLVENFSTEVQIPEAKSFYGFQIMIENIHSETYSLLIDTYIKDPKESEFLFNAIHTIPEIGEKAEWALRWIQDADALFGERLVAFASIEGVFFSGSFASIFWLKKRGMMPGLTFSNELICRDEGLHTDFACLLFAHLKNKPDPAIVEKIVTEAVEIEQRYFLDALPVALLGMNADLMNQYVEFVADRLLVAFGNKKYYKVENPFDFMENISLAGKTNFFEKRVSDYQKAGVMSKSTKQEAGAFTFNEDF
Turning to B1, the “two-hybrid LacZ activity” value in [5] was 2.3 Miller Units; in assay [6] it was 0.9 Miller Units; in assay [7] it was 1.4 Miller Units.

B2: GBD-Sml1 two-hybrid fusion (plasmid pWJ728) (other)
chain: MKLLSSIEQACDICRLKKLKCSKEKPKCAKCLKNNWECRYSPKTKRSPLTRAHLTEVESRLERLEQLFLLIFPREDLDMILKMDSLQDIKALLTGLFVQDNVNKDAVTDRLASVETDMPLTLRQHRISATSSSEESSNKGQRQLTVSMQNSQDYFYAQNRCQQQQAPSTLRTVTMAEFRRVPLPPMAEVPMLSTQNSMGSSASASASSLEMWEKDLEERLNSIDHDMNNNKFGSGELKSMFNQGKVEEMDF
notes: also called GBD fusion SML1
Turning to B2, in assay [8], the binding result was “no binding”. For the same molecule, the “two-hybrid LacZ activity” value in assay [9] turned out to be 31 Miller Units; in assay [6], 3.3 Miller Units; in assay [7] it was 4 Miller Units.

B3: RNR1: GBD (Gal4 DNA binding domain) fusion of the RNR1 ORF in pGBD-C2, two-hybrid construct (protein)
chain: T7 sequence (looked up)
On to B3, for which the LacZ activity in [2] is listed as 85 ± 1 Miller Units; in assay [3], 0.8 ± 0.2 Miller Units; in [10] it was 2.9 ± 0.5 Miller Units. For the same molecule, the ADE2 reporter entry in assay [2] (SC-ADE-LEU-TRP) is recorded as “+”; in [10] (SC-ADE-LEU-TRP), “+/−”. Besides, the HIS3 reporter entry in assay [2] (setting [11]) and in assay [10] (setting [11]) was “+” throughout.
